In patent US20250333514A1 (CDR LIFE, published 2025):
Positions count from the first letter of the chain named.

B1: M3286 (bispecific antibody)
heavy: EVQLVESGGGLVQPGGSLRLSCAASGFTFSTYAMNWVRQAPGKGLEWVGRIRSKYNNYATYYADSVKGRFTISRDDSKNTLYLQMNSLRAEDTAVYYCVRHGNFGDSYVSWFAYWGQGTLVTVSSASTKGPSVFPLAPSSKSTSGGTAALGCLVKDYFPEPVTVSWNSGALTSGVHTFPAVLQSSGLYSLSSVVTVPSSSLGTQTYICNVNHKPSNTKVDKKVEPKSCGGGGSDIQMTQSPSSLSASVGDRVTITCRSSQSVYNNLLGWYQQKPGKAPKLLIYSASTLASGVPSRFSGSGSGTDFTLTISSLQPEDSATYYCQGTYYTGDWYYPFGCGTKVEIKGGGGSGGGGSGGGGSGGGGSQVQLVESGGGSVQPGRSLRLSCAASGFTFSTYGVSWVRQAPGKCLEWIGYIDPVYGSTHYADSVKGRFTISRDNSKNTLYLQMNSLRAEDTASYYCARDLYAGSSGYYMIYSLWGQGTSVTVSS
light: QAVVTQEPSLTVSPGGTVTLTCGSSTGAVTTSNYANWVQQKPGKSPRGLIGGTNKRAPGVPARFSGSLLGGKAALTISGAQPEDEADYYCALWYSNHWVFGGGTKLTVLGQPKAAPSVTLFPPSSEELQANKATLVCLISDFYPGAVTVAWKADSSPVKAGVETTTPSKQSNNKYAASSYLSLTPEQWKSHRSYSCQVTHEGSTVEKTVAPTECS
notes: Humanized variant of M2638, monovalent Fab-scFv
B2: M3293 (bispecific antibody)
heavy: B1 heavy with L288R, T392D, A461V
light: B1 light
notes: as for B1

Target: T1, HLA-A*02:01/PRAME antigen (recombinant, … on HLA-A*02:01) (human, Complex biotinylated for SPR capture; site of biotin and any tag not stated, not in the letters.)
T1 construct: also called PRAME target; pMHC
Experiment: SPR (Biacore 8K), biotinylated pMHC captured, Fab-scFv analyte, single-cycle kinetics, 1:1 fit
Description: Recombinantly produced hits in Fab-scFv format, as described in Example 4, were evaluated for their ability to bind HLA-A*02:01/PRAME antigen. Binding characterization was performed by surface plasmon resonance (SPR) using a Biacore™ 8k (Cytiva) device. Briefly, 3000 RU of Biotin CAPture reagent (Cytiva) was immobilized on a Series S Sensor Chip CAP (Cytiva) and the biotinylated ligand HLA-A*02:01/PRAME (SEQ ID NO: 68) was diluted in HPS-EP+ running buffer (TEKNOVA) and captured for 300 s at a flow rate of 2 μL/min at flow cell 2 resulting in a ligand capture level of >100 RU. Subsequently, at least three consecutive analyte injections were performed at suitable concentrations applying the single-cycle-kinetics mode at a flow rate of 30 μL/min with an association time of 90 s and the dissociation time set to >400 s. The chip surface was regenerated according to the manufacturer's instructions. After reference flow cell signal and blank injections subtraction, the data was fit to a 1:1 Langmuir binding model to determine the association rate constant kₐ and dissociation rate constant kd and calculate the equilibrium dissociation constant KD (kd/kₐ), also denoted as affinity, using the Biacore™ Insight Evaluation software.

Binder | Kd [nM]
B1 | 1.5
B2 | 0.05
